Common to all, as to test: anti-FLAG co-immunoprecipitation, SILAC LC-MS
Settings in all cases: chain shown with the change; Ramos PTP1B KO cells; n = 3; read off a plot; scale: log10 SILAC ratio

The target in test [1] is E3 ubiquitin-protein ligase CBL, P22681.
The target of another test is T1, PLCγ1, P19174.
T1 chain: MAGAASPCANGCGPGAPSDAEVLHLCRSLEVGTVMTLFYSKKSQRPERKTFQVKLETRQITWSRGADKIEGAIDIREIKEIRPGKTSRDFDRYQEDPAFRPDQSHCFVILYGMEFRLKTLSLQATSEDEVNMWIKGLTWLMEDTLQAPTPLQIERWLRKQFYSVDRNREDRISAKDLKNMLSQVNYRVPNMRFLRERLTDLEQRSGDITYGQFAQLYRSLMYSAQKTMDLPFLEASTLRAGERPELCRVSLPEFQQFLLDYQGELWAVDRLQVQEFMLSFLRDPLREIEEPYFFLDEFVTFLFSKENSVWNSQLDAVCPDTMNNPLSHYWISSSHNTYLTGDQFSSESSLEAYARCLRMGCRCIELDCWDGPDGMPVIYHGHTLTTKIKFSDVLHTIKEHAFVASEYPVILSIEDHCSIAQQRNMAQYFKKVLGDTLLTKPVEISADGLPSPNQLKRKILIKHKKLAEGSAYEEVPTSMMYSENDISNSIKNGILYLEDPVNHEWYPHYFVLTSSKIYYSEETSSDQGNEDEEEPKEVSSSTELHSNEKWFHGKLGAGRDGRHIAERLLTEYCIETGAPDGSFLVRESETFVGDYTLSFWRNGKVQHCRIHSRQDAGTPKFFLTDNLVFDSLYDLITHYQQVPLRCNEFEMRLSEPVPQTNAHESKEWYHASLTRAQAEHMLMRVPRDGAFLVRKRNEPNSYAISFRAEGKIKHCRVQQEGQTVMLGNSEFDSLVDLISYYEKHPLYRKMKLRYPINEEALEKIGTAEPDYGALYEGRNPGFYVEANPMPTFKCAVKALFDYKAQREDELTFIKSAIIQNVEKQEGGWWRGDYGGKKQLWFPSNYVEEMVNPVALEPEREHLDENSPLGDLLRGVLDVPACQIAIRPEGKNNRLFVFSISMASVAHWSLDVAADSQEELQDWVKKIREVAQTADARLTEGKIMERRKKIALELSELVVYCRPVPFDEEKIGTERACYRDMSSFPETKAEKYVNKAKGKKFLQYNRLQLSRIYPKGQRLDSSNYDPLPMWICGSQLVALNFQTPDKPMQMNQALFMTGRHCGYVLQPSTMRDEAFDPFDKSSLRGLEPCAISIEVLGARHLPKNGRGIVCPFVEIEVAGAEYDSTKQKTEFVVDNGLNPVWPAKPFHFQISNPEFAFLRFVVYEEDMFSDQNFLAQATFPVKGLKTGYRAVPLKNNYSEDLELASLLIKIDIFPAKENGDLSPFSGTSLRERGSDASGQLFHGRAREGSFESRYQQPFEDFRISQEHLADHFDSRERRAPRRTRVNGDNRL

The target of another test is T2, PLCγ2, P16885.
T2 chain: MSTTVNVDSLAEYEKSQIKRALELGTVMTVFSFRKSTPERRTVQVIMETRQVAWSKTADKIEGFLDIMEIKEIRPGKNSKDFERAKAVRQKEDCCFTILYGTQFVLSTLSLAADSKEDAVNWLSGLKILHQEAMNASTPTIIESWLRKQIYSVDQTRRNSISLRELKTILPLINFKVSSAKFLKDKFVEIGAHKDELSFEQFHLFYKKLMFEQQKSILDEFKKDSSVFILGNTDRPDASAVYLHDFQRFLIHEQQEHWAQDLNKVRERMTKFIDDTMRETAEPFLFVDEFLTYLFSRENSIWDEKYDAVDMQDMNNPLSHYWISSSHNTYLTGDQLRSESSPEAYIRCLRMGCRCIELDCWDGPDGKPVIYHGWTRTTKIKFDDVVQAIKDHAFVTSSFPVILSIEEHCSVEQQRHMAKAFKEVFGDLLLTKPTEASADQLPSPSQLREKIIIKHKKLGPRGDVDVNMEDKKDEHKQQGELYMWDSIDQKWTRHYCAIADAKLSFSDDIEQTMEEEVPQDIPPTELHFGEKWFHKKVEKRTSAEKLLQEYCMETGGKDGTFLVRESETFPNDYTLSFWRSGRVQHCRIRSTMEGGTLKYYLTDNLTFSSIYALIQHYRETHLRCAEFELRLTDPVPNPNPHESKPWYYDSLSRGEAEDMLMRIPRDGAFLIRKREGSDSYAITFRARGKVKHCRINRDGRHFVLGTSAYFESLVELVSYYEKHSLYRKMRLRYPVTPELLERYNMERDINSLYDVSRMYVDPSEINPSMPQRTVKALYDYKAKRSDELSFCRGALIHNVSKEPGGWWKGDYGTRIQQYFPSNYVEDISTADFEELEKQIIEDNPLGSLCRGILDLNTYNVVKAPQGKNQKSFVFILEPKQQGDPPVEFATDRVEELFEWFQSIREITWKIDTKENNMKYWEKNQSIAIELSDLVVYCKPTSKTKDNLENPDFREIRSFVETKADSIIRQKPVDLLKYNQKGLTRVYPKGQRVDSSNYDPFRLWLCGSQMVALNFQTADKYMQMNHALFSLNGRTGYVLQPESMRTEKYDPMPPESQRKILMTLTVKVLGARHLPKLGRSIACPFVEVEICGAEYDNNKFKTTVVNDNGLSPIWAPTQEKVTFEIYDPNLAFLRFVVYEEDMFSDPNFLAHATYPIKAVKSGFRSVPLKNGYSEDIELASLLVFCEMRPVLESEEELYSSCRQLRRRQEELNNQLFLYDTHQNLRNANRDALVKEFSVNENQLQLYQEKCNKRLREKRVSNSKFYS

The target in test [2] is amyloid-like protein 2 (APLP2), Q06481.
amyloid-like protein 2 (APLP2), Q06481, sequence (Q06481 32-763): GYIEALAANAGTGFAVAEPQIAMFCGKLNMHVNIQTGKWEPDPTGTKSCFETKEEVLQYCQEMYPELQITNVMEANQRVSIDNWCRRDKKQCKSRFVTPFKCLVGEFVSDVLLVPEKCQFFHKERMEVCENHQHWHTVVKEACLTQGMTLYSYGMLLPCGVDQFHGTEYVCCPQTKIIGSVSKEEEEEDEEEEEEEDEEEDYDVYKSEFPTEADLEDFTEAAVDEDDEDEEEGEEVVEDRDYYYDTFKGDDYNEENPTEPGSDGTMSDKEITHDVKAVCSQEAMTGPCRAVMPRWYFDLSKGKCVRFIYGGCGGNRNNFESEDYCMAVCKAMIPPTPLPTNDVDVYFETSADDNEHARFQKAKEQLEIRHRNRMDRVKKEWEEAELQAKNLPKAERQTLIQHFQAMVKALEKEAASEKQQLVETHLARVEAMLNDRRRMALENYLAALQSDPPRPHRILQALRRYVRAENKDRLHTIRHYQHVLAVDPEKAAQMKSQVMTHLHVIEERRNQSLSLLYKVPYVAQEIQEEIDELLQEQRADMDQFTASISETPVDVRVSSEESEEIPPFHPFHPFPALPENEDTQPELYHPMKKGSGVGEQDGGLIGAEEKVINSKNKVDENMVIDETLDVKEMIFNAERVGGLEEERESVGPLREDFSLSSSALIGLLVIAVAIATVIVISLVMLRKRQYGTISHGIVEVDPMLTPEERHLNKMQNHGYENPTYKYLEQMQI
Test [3] addresses T3, epidermal growth factor receptor substrate 15-like 1 (EPS15L1), Q9UBC2.
T3 chain: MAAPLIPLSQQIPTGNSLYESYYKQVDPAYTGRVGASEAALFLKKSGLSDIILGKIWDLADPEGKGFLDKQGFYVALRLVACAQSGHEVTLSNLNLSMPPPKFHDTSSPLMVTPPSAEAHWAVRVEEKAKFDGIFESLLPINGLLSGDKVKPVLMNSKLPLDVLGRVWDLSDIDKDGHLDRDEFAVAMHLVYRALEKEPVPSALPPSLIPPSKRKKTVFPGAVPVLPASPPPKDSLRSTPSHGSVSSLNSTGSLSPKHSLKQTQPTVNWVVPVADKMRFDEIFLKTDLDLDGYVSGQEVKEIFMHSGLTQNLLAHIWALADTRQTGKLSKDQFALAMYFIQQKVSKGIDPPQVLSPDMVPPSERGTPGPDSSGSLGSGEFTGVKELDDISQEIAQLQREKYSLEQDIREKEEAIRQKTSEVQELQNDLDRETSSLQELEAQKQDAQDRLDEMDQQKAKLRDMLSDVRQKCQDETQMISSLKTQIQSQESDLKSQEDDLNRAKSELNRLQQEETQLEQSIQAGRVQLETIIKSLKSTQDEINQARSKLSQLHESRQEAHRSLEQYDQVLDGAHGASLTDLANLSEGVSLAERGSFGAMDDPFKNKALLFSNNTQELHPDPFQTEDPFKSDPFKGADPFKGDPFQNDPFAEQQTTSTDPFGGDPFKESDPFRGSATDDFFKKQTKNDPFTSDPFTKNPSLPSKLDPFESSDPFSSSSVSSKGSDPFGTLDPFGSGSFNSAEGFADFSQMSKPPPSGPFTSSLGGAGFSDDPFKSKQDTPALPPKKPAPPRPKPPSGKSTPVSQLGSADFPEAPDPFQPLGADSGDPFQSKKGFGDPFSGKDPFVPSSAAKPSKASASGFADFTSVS

Test [4] deals with growth factor receptor-bound protein 2 (GRB2), P62993.
Test [5] addresses T4, intersectin-2 (ITSN2), Q9NZM3.
T4 chain: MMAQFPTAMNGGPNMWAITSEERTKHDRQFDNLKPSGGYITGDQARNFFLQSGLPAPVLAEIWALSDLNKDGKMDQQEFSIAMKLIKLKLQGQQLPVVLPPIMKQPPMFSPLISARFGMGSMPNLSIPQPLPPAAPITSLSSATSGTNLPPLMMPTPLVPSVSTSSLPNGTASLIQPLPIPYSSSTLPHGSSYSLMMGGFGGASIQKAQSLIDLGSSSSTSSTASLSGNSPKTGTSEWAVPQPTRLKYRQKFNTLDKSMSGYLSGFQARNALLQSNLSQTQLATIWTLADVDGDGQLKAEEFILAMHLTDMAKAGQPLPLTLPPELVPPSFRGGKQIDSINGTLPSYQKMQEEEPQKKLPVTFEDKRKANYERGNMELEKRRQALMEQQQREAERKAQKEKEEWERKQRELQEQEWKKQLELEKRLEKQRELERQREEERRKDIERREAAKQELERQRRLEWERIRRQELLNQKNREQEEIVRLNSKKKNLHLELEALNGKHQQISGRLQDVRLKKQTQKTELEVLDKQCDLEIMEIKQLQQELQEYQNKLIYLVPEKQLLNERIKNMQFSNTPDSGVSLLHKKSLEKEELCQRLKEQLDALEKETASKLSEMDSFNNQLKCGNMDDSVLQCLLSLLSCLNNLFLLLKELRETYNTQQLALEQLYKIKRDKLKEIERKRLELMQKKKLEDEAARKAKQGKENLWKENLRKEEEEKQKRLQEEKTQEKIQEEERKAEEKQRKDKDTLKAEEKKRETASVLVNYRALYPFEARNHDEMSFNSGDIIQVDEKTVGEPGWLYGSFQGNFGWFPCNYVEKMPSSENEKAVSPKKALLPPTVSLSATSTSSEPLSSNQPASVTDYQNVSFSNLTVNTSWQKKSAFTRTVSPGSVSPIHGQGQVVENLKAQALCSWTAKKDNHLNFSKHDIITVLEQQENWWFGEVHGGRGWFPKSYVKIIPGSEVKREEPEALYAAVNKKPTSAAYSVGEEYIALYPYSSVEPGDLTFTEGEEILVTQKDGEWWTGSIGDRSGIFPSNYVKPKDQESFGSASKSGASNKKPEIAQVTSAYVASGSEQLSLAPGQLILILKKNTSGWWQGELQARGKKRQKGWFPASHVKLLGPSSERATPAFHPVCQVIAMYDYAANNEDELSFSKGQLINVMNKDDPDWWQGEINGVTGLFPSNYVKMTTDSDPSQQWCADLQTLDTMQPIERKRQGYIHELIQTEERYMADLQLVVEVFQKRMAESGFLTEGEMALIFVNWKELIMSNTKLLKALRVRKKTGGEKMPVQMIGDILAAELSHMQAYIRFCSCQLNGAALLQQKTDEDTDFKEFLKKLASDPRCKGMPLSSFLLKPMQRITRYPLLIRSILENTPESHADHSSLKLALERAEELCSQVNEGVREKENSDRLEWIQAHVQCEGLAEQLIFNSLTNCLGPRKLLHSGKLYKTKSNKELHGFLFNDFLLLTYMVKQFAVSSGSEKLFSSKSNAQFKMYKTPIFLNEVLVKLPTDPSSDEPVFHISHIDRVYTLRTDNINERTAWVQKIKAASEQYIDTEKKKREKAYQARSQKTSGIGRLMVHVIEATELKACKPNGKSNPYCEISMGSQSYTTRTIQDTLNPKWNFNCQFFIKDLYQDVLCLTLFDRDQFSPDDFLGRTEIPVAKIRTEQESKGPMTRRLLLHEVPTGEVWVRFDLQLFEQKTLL

B1: D181A; Y46F (protein)
chain: MEMEKEFEQIDKSGSWAAIYQDIRHEASDFPCRVAKLPKNKNRNRFRDVSPFDHSRIKLHQEDNDYINASLIKMEEAQRSYILTQGPLPNTCGHFWEMVWEQKSRGVVMLNRVMEKGSLKCAQYWPQKEEKEMIFEDTNLKLTLISEDIKSYYTVRQLELENLTTQETREILHFHYTTWPAFGVPESPASFLNFLFKVRESGSLSPEHGPVVVHCSAGIGRSGTFCLADTCLLLMDKRKDPSSVDIKKVLLEMRKFRMGLIQTADQLRFSYLAVIEGAKFIMGDSSVQDQWKELSHEDLEPPPEHIPPPPRPPKRILEPHNGKCREFFPNHQWVKEETQEDKDCPIKEEKGSPLNAAPYGIESMSQDTEVRSRVVGGSLRGAQAASPAKGEPSLPEKDEDHALSY
For B1, the enrichment in test [1] was 0.74; with PLCγ1, P19174 it was 0.87; with PLCγ2, P16885 it was 0.48; in test [2] it was 1.3; in test [3], 0.59; in test [4] it was 0.87. Further, the enrichment in test [5] stood at 0.62.

(Values after article PMC8473724.)
